Experimental findings from doi:10.1101/798769 are described below.

This experiment has as its target NANP 5.5-mer peptide, NP(NANP)5 (Plasmodium falciparum). The experiment is described as follows: SPR. (In general: In SPR one partner is held on a chip, and binding of the other changes the refractive index at the surface.)

With “mAb CIS43 (recombinant human IgG1, kappa) (antibody)”, the fold lower affinity (reference not clear: its own NPDP affinity or mAb 4493) stood at 100 fold.
